This note sets out measurements from patent US20180208658A1 (EUREKA THERAPEUTICS, published 2018).

The target of assay [1] is T1, recombinant AFP protein (UniProt P02771 19-609, limits assumed).
T1 construct: also called AFP recombinant protein
T1 sequence (looked up): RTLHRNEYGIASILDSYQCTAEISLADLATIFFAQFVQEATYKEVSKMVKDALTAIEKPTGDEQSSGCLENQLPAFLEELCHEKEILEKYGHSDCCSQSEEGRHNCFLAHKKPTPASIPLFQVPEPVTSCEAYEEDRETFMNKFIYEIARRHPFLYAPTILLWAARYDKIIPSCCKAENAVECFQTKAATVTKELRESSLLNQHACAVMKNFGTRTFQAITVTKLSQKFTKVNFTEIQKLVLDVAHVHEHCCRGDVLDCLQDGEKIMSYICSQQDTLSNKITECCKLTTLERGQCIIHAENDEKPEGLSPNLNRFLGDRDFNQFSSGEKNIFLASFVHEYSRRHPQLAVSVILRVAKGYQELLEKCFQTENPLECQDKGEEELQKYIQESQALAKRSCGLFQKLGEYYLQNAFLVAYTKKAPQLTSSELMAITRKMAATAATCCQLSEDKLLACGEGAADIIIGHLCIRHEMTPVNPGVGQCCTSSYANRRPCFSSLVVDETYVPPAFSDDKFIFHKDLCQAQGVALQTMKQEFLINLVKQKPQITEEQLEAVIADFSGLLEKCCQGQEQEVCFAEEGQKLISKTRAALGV
Put plainly: ELISA on AFP protein coated at 2 µg/mL. (An ELISA detects its analyte on a solid surface through an enzyme-linked reagent.)
Description: Antibodies were tested at 3× serial dilution, starting from 100 ng/mL, for a total of 8 concentrations. Biotinlyated AFP158/A*02:01 MHC was coated onto streptavidin plates at 2 μg/mL, AFP protein was coated at 2 μg/mL and AFP158 peptide was coated at 40 ng/mL.

In assay [2] the target is T2, AFP158/HLA-A*02:01 complex presented on cells (human).
T2 construct: the cell line used is named under assay in each row; also called AFP158-loaded T2 cells; human AFP158-loaded T2 cells
The assay is described as follows: FACS of scFv phage on AFP158 peptide-loaded T2 cells, anti-M13 mAb and R-PE anti-mouse IgG.
Description: (§1) Specific and unique clones were further tested for their binding to HLA-A2/peptide complexes on live cell surfaces by flow cytometry (FACS analysis) using AFP158-loaded live T2 cells. T2 cells loaded with different peptides and β2M were first stained with purified scFv phage clones, followed by staining with a mouse anti-M13 mAb, and finally the R-PE conjugated horse anti-mouse IgG from Vector Labs. Each step of the staining was done between 30-60 minutes on ice and the cells were washed twice between staining.

The target in assay [3] is T3, hTERT540 peptide (…)/HLA-A*02:01 on T2 cells (human).
T3 construct: control peptide-MHC; also called β2M/hTERT peptide-loaded T2 cells
Put plainly: FACS of scFv phage on hTERT peptide-loaded T2 cells.
Description: as §1

Assay [4] addresses T4, HLA-A*02:01 on T2 cells with β2M but without peptide loaded (human).
T4 construct: control without added peptide; also called β2M-loaded T2 cells
Put plainly: FACS of scFv phage on β2M-loaded T2 cells without peptide.
Description: as §1

For assay [5], the target named is T5, mouse AFP158 peptide/HLA-A*02:01 complex on T2 cells (human; mouse).
T5 construct: also called mouse AFP158-loaded T2 cells
The assay is described as follows: FACS, phage clone on peptide-loaded T2 cells. In general terms: A flow cytometer gives signals particle by particle.

The target in assay [6] is T5, mouse AFP158 peptide/HLA-A*02:01 …. The assay is described as follows: FACS of scFv phage on mouse AFP158 peptide-loaded T2 cells.
In assay [7] the target is T2, AFP158/HLA-A*02:01 complex presented on …. Put plainly: FACS, phage clone on peptide-loaded T2 cells.
In assay [8] the target is T6, hAFP158 A4 peptide (…)/HLA-A*02:01 on T2 cells (human).
T6 construct: also called Ala Position 4
Put plainly: FACS, scFv phage clone on peptide-loaded T2 cells.
Description: (§2) Antibody phage clones were then tested for binding to these peptide-loaded T2 cells by FACS analysis.

For assay [9], the target named is T7, hAFP158 A8 peptide (…)/HLA-A*02:01 on T2 cells (human).
T7 construct: also called Ala Position 8
Put plainly: FACS, scFv phage clone on peptide-loaded T2 cells.
Description: as §2

Assay [10] deals with T8, hAFP158 A5 peptide (…)/HLA-A*02:01 on T2 cells (human).
T8 construct: also called Ala Position 5
Put plainly: FACS, scFv phage clone on peptide-loaded T2 cells.
Description: as §2

The target in assay [11] is T9, hAFP158 A7 peptide (…)/HLA-A*02:01 on T2 cells (human).
T9 construct: also called Ala Position 7
Put plainly: FACS, scFv phage clone on peptide-loaded T2 cells.
Description: as §2

For assay [12], the target named is T10, hAFP158 A6 peptide (…)/HLA-A*02:01 on T2 cells (human).
T10 construct: also called Ala Position 6
Put plainly: FACS, scFv phage clone on peptide-loaded T2 cells.
Description: as §2

For assay [13], the target named is T2, AFP158/HLA-A*02:01 complex presented on …. The assay is described as follows: FACS, scFv phage clone on peptide-loaded T2 cells.
Description: as §2
Assay [14] addresses T11, hAFP158 A3 peptide (…)/HLA-A*02:01 on T2 cells (human).
T11 construct: also called Ala Position 3
The assay is described as follows: FACS, scFv phage clone on peptide-loaded T2 cells.
Description: as §2

For assay [15], the target named is T12, hAFP158 A1 peptide (…)/HLA-A*02:01 on T2 cells (human).
T12 construct: also called Ala Position 1
Put plainly: FACS, scFv phage clone on peptide-loaded T2 cells.
Description: as §2

Changes are numbered by the printed parent chain.

B1: full-length AFP158 mouse chimeric IgG1 antibody 1402-79 (antibody, V domains shown)
VH: QMQLVQSGGGLVQPGRSLRLSCAASGFTFDDYAMHWVRQAPGKGLEWVSGISWNSGSIGYADSVKGRFTISRDNAKNSLYLQMNSLRAEDTALYYCAKDIHSGSYYGLLYYAMDVWGQGTTVTVSS
VL: QSVLTQPPSVSGAPGQRVTISCTGSSSNIGAGYDVHWYQQLPGTAPKLLIFGNSNRPSGVPDRFSGFKSGTSASLAITGLQAEDEADYFCQSYDSSLSGSGVFGTGTKVTVLG
notes: bivalent IgG
Regarding B1, the binding result in [1] is given as “no binding (tested: 100 ng/mL)”.

B2: AFP158/HLA-A*02:01-specific scFv phage clone #48 (scFv, V domains shown)
VH: EVQLVESGGGLVQPGRSLRLSCAASGFTFDDYAMHWVRQAPGKGLEWVSGISWNSGRIGYADSVKGRFTISRDNAKNSLYLQMNSLRAEDTAVYYCARADDYGAPYYYYGMDVWGQGTTVTVSS
VL: QSVLTQPPSVSGAPGQRVTISCTGSSSNIGAGYDVHWYQQLPGTAPKLLIYGNSNRPSGVPDRFSGSKSGTSASLAITGLQAEDEADYYCQSYDSSLSGSVFGTGTKVTVLG
Turning to B2, the binding result in assay [2] was “binds”; in assay [3], “no binding”; in assay [4], “no binding”; in [5] it was “binds”.

B3: #50 (scFv, V domains shown, not shown: large carriers; small tags and cut ends)
VH: QVQLQESGPGLVKPSGTLSLTCAVSGGSISSSNWWSWVRQPPGKGLEWIGEIYHSGSTNYNPSLKSRVTISVDKSKNQFSLKLSSVTAADTAVYYCATGYGGYFDYWGQGTLVTVSS
VL: QSVLTQPPSVSVAPGKTARITCGGNNIGSKSVHWYQQKPGQAPVLVIYYDSDRPSGIPERFSGSNSGNTATLTISRVEAGDEADYYCQVWDSSSDHVVFGGGTKLTVL
notes: also called Clone 50; AFP158/HLA-A*02:01-specific scFv phage clone #50; copies: 1 + 1
As for B3, the binding result in [2] is recorded as “binds”; in [3] it was “no binding”; in assay [4], “no binding”.

B4: AFP158/HLA-A*02:01-specific scFv phage clone #33 (scFv, V domains shown)
VH: QVQLQQSGPGLVKPSQTLSLTCAISGDSVSSNSAAWNWIRQSPSRGLEWLGRTYYRSKWYNDYAVSVKSRITINPDTSKNQFSLQLNSVTPEDTAVYYCARGSYYSGRYDAWGQGTLVTVSS
VL: NFMLTQPHSVSESPGKTVTISCTRSSGSIASNYVQWYQQRPGSSPTTVIYEDNQRPSGVPDRFSGSIDSSSNSASLTISGLKTEDEADYYCQSYDSSTVVFGGGTKLTVLG
For B4, the binding result in [2] is listed as “binds”; in assay [3], “no binding”; in [4] it was “no binding”; in assay [5], “binds”.

B5: #44 (scFv, V domains shown, not shown: large carriers; small tags and cut ends)
VH: QVQLVQSGAEVKKPGSSVKVSCKASGGTFSSYAISWVRQAPGQGLEWMGGIIPIFGTANYAQKFQGRVTITADESTSTAYMELSSLRSEDTAVYYCAREIRGYYYYYGMDVWGQGTTVTVSS
VL: SYELTQPPSVSVAPGKTARITCGGDNIGTKSVTWYQQRPGQAPMMVIYYDTVRPSGIPERLSGSNSGNTATLTITRVEAGDEADYYCQVWDSSSDHPVFGGGTKLTVL
notes: also called Clone 44; AFP158/HLA-A*02:01-specific scFv phage clone #44; copies: 1 + 1
On to B5, for which the binding result in assay [2] is given as “binds”; in assay [3], “no binding”; in [6], “no binding”; in assay [4], “no binding”.

B6: full-length AFP158 mouse chimeric IgG1 antibody 1402-76 (antibody, V domains shown)
VH: EVQLVESGGGLVKPGGSLRLSCAASGFTFSNAWMSWVRQAPGKGLEWVGFIRSKAYGGTTEYAASVKGRFTISRDDSKSIAYLQMNNLKTEDTAVYYCARDGLYSSSWYDSDYWGQGTLVTVSS
VL: QSVVTQPPSVSAAPGQKVTISCSGSSSNIGNNYVSWYQQLPGTAPKLLIYDNNKRPSGIPDRFSGSKSGTSATLGITGLQTGDEADYYCGTWDGSLYTMLFGGGTKLTVLG
notes: bivalent IgG
In the case of B6, the binding result in assay [1] is on record as “no binding (tested: 100 ng/mL)”.

B7: AFP158/HLA-A*02:01-specific scFv phage clone #17 (scFv, V domains shown)
VH: EVQLVQSGAEVKKPGASVKVSCKASGYTFTSYGISWVRQAPGQGLEWMGWISAYNGNTNYAQKLQGRVTMTTDTSTSTAYMELRSLRSDDTAVYYCARYQDWWYLGQFDQWGQGTLVTVSS
VL: QSALTQPASVSGSPGQSITISCTATGSDVGVYYYVSWYQQHPGKAPKVMIYDVGNRPPGVSNRFSGSKSGNTASLTISGLQAEDEADYYCASYTNRNSLGYVFGTGTKVTVLG
With B7, the binding result in assay [5] and in assay [7] was “binds” throughout.

B8: AFP158/HLA-A*02:01-specific scFv phage clone #17-13 (scFv, V domains shown)
VH: B7 VH with Y99F
VL: B7 VL with G54D
notes: also called AM1402-17-13
Take B8: the “FACS binding signal (name and unit not given)” value amounted to 50800 in assay [8]; 43200 in assay [9]; 1500 in assay [10]; 572 in assay [11]; 28800 in [12]; 83300 in assay [13]. The “FACS binding signal (name and unit not given)” value turned out to be 2910 in assay [14] and 55600 in assay [15].

B9: full-length AFP158 mouse chimeric IgG1 antibody 1402-61 (antibody, V domains shown)
VH: EVQLVQSGAEVKKPGESLTISCKASGYSFPNYWITWVRQMSGGGLEWMGRIDPGDSYTTYNPSFQGHVTISIDKSTNTAYLHWNSLKASDTAMYYCARYYVSLVDIWGQGTLVTVSS
VL: QSVLTQPASVSGSPGQSITISCTGTSSDVGGYNYVSWYQQHPGKAPKLMIYDVNNRPSEVSNRFSGSKSGNTASLTISGLQAEDEADYYCSSYTTGSRAVFGGGTKLTVLG
notes: bivalent IgG
For the molecule B9, in assay [1], the binding result is “no binding (tested: 100 ng/mL)”.
